Molecular target: the molecule itself
Assay: SEC-MALS; single protein at 5 mg/ml, Superdex 200, 20 mM HEPES pH 7.5, 150 mM NaCl

B1: BTN2A1 B30.2 domain (domain or fragment, human)
chain: EELRWRRTFLHAVDVVLDPDTAHPDLFLSEDRRSVRRCPFRHLGESVPDNPERFDSQPCVLGRESFASGKHYWEVEVENVIEWTVGVCRDSVERKGEVLLIPQNGFWTLEMHKGQYRAVSSPDRILPLKESLCRVGVFLDYEAGDVSFYNMRDRSHIYTCPRSAFSVPVRPFFRLGCEDSPIFICPALTGANGVTVPEEGLTLHRVGTHQSL
notes: butyrophilin 2A1 (BTN2A1), human, intracellular B30.2 domain with the C-terminal tail; Homodimer by SEC-MALS and in the crystals; source: E. coli BL21 (DE3), purified (Ni-NTA, TEV cleavage, Ni-NTA or DEAE Sepharose)
stoichiometry N: 2

From paper PMC10533412 (Nature, 2023)
